B1: DVD458 (bispecific antibody, IgG1)
VH: EVQLVESGGGLVQPGGSLRLSCAASGFTINASWIHWVRQAPGKGLEWVGAIYPYSGYTNYADSVKGRFTISADTSKNTAYLQMNSLRAEDTAVYYCARWGHSTSPWAMDYWGQGTLVTVSSASTKGPSVFPLAPQVQLVQSGAEVKKPGASVKISCKASGYSFTAYYIHWVKQAPGQGLEWIGYISSYNGATNYNQKFKGRVTFTTDTSTSTAYMELRSLRSDDTAVYYCARDYDYDVGMDYWGQGTLVTVSS
VL: DIQMTQSPSSLSASVGDRVTITCRASQVIRRSLAWYQQKPGKAPKLLIYAASNLASGVPSRFSGSGSGTDFTLTISSLQPEDFATYYCQQSNTSPLTFGQGTKVEIKRTVAAPDIVMTQSPDSLAVSLGERATISCRASESVDNYGISFMKWFQQKPGQPPKLLIYAASNQGSGVPDRFSGSGSGTDFTLTISSLQAEDVAVYYCQQSKEVPWTFGGGTKVEIKR
notes: DVD-Ig, outer AB071 / inner AB069; HC linker long, LC linker short; also called DVD458H; DVD458L
B2: DVD457 (bispecific antibody, IgG1)
VH: QVQLVQSGAEVKKPGASVKISCKASGYSFTAYYIHWVKQAPGQGLEWIGYISSYNGATNYNQKFKGRVTFTTDTSTSTAYMELRSLRSDDTAVYYCARDYDYDVGMDYWGQGTLVTVSSASTKGPSVFPLAPEVQLVESGGGLVQPGGSLRLSCAASGFTINASWIHWVRQAPGKGLEWVGAIYPYSGYTNYADSVKGRFTISADTSKNTAYLQMNSLRAEDTAVYYCARWGHSTSPWAMDYWGQGTLVTVSS
VL: DIVMTQSPDSLAVSLGERATISCRASESVDNYGISFMKWFQQKPGQPPKLLIYAASNQGSGVPDRFSGSGSGTDFTLTISSLQAEDVAVYYCQQSKEVPWTFGGGTKVEIKRTVAAPDIQMTQSPSSLSASVGDRVTITCRASQVIRRSLAWYQQKPGKAPKLLIYAASNLASGVPSRFSGSGSGTDFTLTISSLQPEDFATYYCQQSNTSPLTFGQGTKVEIKR
notes: DVD-Ig, outer AB069 / inner AB071; HC linker long, LC linker short; also called DVD457H; DVD457L
B3: DVD463 (bispecific antibody, IgG1)
VH: QVQLVQSGAEVKKPGASVKISCKASGYSFTAYYIHWVKQAPGQGLEWIGYISSYNGATNYNQKFKGRVTFTTDTSTSTAYMELRSLRSDDTAVYYCARDYDYDVGMDYWGQGTLVTVSSASTKGPEVQLVESGGGLVQPGGSLRLSCAASGFTINASWIHWVRQAPGKGLEWVGAIYPYSGYTNYADSVKGRFTISADTSKNTAYLQMNSLRAEDTAVYYCARWGHSTSPWAMDYWGQGTLVTVSS
VL: DIVMTQSPDSLAVSLGERATISCRASESVDNYGISFMKWFQQKPGQPPKLLIYAASNQGSGVPDRFSGSGSGTDFTLTISSLQAEDVAVYYCQQSKEVPWTFGGGTKVEIKRTVAAPSVFIFPPDIQMTQSPSSLSASVGDRVTITCRASQVIRRSLAWYQQKPGKAPKLLIYAASNLASGVPSRFSGSGSGTDFTLTISSLQPEDFATYYCQQSNTSPLTFGQGTKVEIKR
notes: DVD-Ig, outer AB069 / inner AB071; HC linker short, LC linker long; also called DVD463H; DVD463L
B4: DVD464 (bispecific antibody, IgG1)
VH: EVQLVESGGGLVQPGGSLRLSCAASGFTINASWIHWVRQAPGKGLEWVGAIYPYSGYTNYADSVKGRFTISADTSKNTAYLQMNSLRAEDTAVYYCARWGHSTSPWAMDYWGQGTLVTVSSASTKGPQVQLVQSGAEVKKPGASVKISCKASGYSFTAYYIHWVKQAPGQGLEWIGYISSYNGATNYNQKFKGRVTFTTDTSTSTAYMELRSLRSDDTAVYYCARDYDYDVGMDYWGQGTLVTVSS
VL: DIQMTQSPSSLSASVGDRVTITCRASQVIRRSLAWYQQKPGKAPKLLIYAASNLASGVPSRFSGSGSGTDFTLTISSLQPEDFATYYCQQSNTSPLTFGQGTKVEIKRTVAAPSVFIFPPDIVMTQSPDSLAVSLGERATISCRASESVDNYGISFMKWFQQKPGQPPKLLIYAASNQGSGVPDRFSGSGSGTDFTLTISSLQAEDVAVYYCQQSKEVPWTFGGGTKVEIKR
notes: DVD-Ig, outer AB071 / inner AB069; HC linker short, LC linker long; also called DVD464H; DVD464L

molecular target: VEGF (VEGF 1-165 aa, R&D Systems 293-VE-010) (UniProt P15692 27-191); test: Direct bind ELISA, VEGF coated on plate;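 further: ELISA screening of antibodies for binding to the plate-coated target antigen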
Sequence (P15692 other isoform, or with tags, fused parts or gaps limits assumed): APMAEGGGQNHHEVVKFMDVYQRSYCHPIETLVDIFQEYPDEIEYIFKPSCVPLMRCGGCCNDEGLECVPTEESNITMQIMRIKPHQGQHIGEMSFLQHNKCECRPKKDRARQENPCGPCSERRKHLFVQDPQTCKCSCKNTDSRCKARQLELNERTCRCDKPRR

Binder	EC50 [nM]
B1	21.5
B2	1480
B3	1730
B4	19.3

From patent US20100260668A1 (published 2010)
